Experiment: yeast display, Sf9 membrane polyspecificity reagent, FACS + sequencing; frameworks hold sequencing errors
In short: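 Nanobodies came from a synthetic yeast display library in Saccharomyces cerevisiae BJ5465, induced with galactose for 36–48 hours and stained for 1 hour at 4 °C with 10% biotinylated, detergent-solubilized Sf9 membrane reagent. Cells were enriched on streptavidin microbeads and then FACS-sorted, with low and high (top ~1%) gates set on anti-HA fluorescence for expression and streptavidin fluorescence for reagent binding. Each polyreactivity label reflects the gate a clone came from. Genes were amplified by colony PCR, sequenced by MiSeq 2 × 250 and filtered by CDR length.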

Sequence	polyreactivity (PSR sort gate)
QVQLVESGGGLVQAGGSLRLSCAASGSTFIRYAMGWYRQAPGKERELVAAITSGGRTNYADSVKGRFTISRDNAKNTVYLQMNSLKPEDTAVYYCAKLRWVYGRQTLMDYWGQGTQVTVSS	high polyreactivity
QVQLVESGGGLVQAGGSLRLSCAASGSTFISNTMGWYRQAPGKERELVAGISSIGGITYYADSVKGRFTISRDNAKNTVYLQMNSLKPEDTAVYYCAKLDVISDDLDYWGQGTQVTVSS	low polyreactivity
QVQLVESGGGLVQAGGSLRLSCAASGSTFITNAMGGYRQAPGKERELVATISRSGGRTYYADSVKGRFTISRDNAKNSVYLEMNSLNPEDTAVFYCAKRYGSKFEYWGLGTQVTVSS	high polyreactivity
QVQLVESGGGLVQAGGSLRLSCAASGSTFITNTMGWYRQAPGKERELVAAISKSGGSTYYADSVKGRFTISRDNAKNTVYLKMNSLKAEDTAVYYCAADIYVRDRGVKYDYWRQGTQVTVSS	low polyreactivity
QVQLVESGGGLVQAGGSLRLSCAASGSTFIVYAMGWYRQAPGKERELVAAISLDGGSTYYADSVKGRFTISRDNAKNTVYLQMNSLKPEDTAVYYCNADYYANSITYDSWGQGTQVTVSS	low polyreactivity
QVQLVESGGGLVQAGGSLRLSCAASGSTFIVYAMGWYRQAPGKERELVAAITRGGSTNYADSVKGRFTISRDNAKNTVYLQMNSLKPEDTAVYYCAAPYAGWRDGGDYWGQGTQVTVSS	low polyreactivity
QVQLVESGGGLVQAGGSLRLSCAASGSTFIYYAMGWYRQAPGKEREFVAAISYRGGSTYYADSVKGRFTISRDNAKYTVYLQMNSLKPEDTAVYYCAASYRSWWETYLRGDYWGQGTQVTVSS	high polyreactivity
QVQLVESGGGLVQAGGSLRLSCAASGSTFIYYAMGWYRQAPGKERELVAGISIRGGSTYADSVKGRFTISRDNAKNTVYLQMNSVKPEDTAVYYCNAYKRIKANGYAIRYYYWGQGTQVTVSS	high polyreactivity
QVQLVESGGGLVQAGGSLRLSCAASGSTFKAYAMGWYRQAPGKEREFVAAITRSGGRTYYADSVKGRFTISRDNAKNTVYLQMNSLKPEDTAVYYCAAYTWYAWVSDPTNEYWGQGTQVTVSS	low polyreactivity
QVQLVESGGGLVQAGGSLRLSCAASGSTFKDNAMGRYIQAPGKERELVARITYRGGRTYADSVKGRFTISRDNAKNTVYFQMNSLKPEDTAVYYCAARPSLYGHNSRYDYWGQGTQVTVSS	low polyreactivity
QVQLVESGGGLVQAGGSLRLSCAASGSTFKDNAMGWYRLAPGKERELVARITYRGGRTYADSVKGRFTISRDNAKNTVFLQMNSLKPEDTAVYYCAARPSLYGHNSRYDYWGQGTQVTVSS	low polyreactivity
QVQLVESGGGLVQAGGSLRLSCAASGSTFKFYAMGWYRQAPGKARELVASITSSSGPTYYADSVKGRFTISRDNAKNTVYLQMNSLKPEDPAVYYCNKDWRRYWLRGDYWGQGTQVTVSS	low polyreactivity
QVQLVESGGGLVQAGGSLRLSCAASGSTFKIYAMGWYRQAPGKERELVASIRGRGGSTYYADSVKGRFTISRDNAKNTVYLQLNSLKPEDTAVYYCNATYGHRYAPGISYDYWGQGSQVTVSS	high polyreactivity
QVQLVESGGGLVQAGGSLRLSCAASGSTFKIYARGWYRQAPGKERELVARITGRGGSTYYADSVKGRFTISRDNAKNTVYLQMNSLKPEDTAVYYCAARVYTYYYDLHKRYYWGQGTQVTVSS	high polyreactivity
QVQLVESGGGLVQAGGSLRLSCAASGSTFKKYVMGWYRQAPGKERELVAAISGRGGSTYYADSVKGRFTISRDNAKNTVYLQMNSLKPEDTAVYYCNARKQTARFDSWGQGTQVTVSS	high polyreactivity
QVQLVESGGGLVQAGGSLRLSCAASGSTFKNYAMGWYRQAPGKERELVAAINVSGARTYYADSVKGRFTISRDNAKNTVYLQMNSLKPEDTAVYYCAAYYSGVGYDYWGQGTQVTVSS	high polyreactivity
QVQLVESGGGLVQAGGSLRLSCAASGSTFKRNAMGWSRQAPGKEWELVAAITFSGATTYYADSVKGRFTISRDNAKNTVYLQMNSLKPEDTAVYYCATKAYTTGRYYWGQGTQVTVSS	high polyreactivity
QVQLVESGGGLVQAGGSLRLSCAASGSTFKRNAMGWYRPAPGKERELVAAITFSGATTYYADSVKGRFTISRDNAKNTVYLQMNSLKPEDTAVYYCATKAYTTGRYYWGQGTQVTVSS	high polyreactivity
QVQLVESGGGLVQAGGSLRLSCAASGSTFKRNAMGWYRPATGKERELVATITRRGGSTYADSVKGRFTISRDNAKNTVYLQMNSLKPEDTAVYYCNADSRPLSTYYYWGQGTQVTVSS	low polyreactivity
QVQLVESGGGLVQAGGSLRLSCAASGSTFKRNAMGWYRQAPGKERELVAAITSGGSTYYADSVKGRFTISRDNAKNTVYLQMNSLKPEDTAVYYCNKVRGAFYSHLFDYWGQGTQVTVSS	high polyreactivity
QVQLVESGGGLVQAGGSLRLSCAASGSTFKRNAMGWYRQATGKERELVAAISTNGGRTYYADSVKGRFTISRDNAKNTVYLQMNSLKPEDTAVYYCAVDLFDGVTKLNYDYWGQGTQVTVSS	low polyreactivity
QVQLVESGGGLVQAGGSLRLSCAASGSTFKRNTMGWYRQAPGKERELVAAISRSGGYTYYADSVKGRFTISRDNAKNTVYLQMNSLNPEDTAVYYCNANVSSYVGSRSYGLSPYDYWGQGTQVTVSS	high polyreactivity

Sequence	polyreactivity (PSR sort gate)
QVQLVESGGGLVQAGGSLRLSCAASGSTFKSYAMGWYRQAPGKERELVAAISRSGGRTYYADSVKGRFTISRDNAKNTVYLQMNSLKPEDTAVYYCATGVKREGDYWGQGTQVTVSS	high polyreactivity
QVQLVESGGGLVQAGGSLRLSCAASGSTFKSYAMGWYRQAPGKERELVAAITHRGSTYYADSVKGRFTTSRDNAKNTVYLQMNSLKPEDTAVYYCNVRRIGNGRRVDYWGQGTQVTVSS	high polyreactivity
QVQLVESGGGLVQAGGSLRLSCAASGSTFKSYAMGWYRQEPGKERELVAAITVSGGSTYYADSVKGRFTISRDNAKNTVYLQMNSLKPEDTAVYYCAADSVLLKDTGYDYWGQGTQVTVSS	low polyreactivity
QVQLVESGGGLVQAGGSLRLSCAASGSTFKTYTMGWYRQAPGKERELVAGITSGGSTSYADSVKGRFTISRDNAKNTVYLQMNSLKPEDTAVYYCNADAYLVIYFYTVRDYGYDYWGQGTQVTVSS	low polyreactivity
QVQLVESGGGLVQAGGSLRLSCAASGSTFKVYAMGWYRQAPGKERELVAAISQSGGSTYYADSVKGRFTITRDNAKNTVYFQMKSLKPEDTAVYYCAVRTYVYHWSFSSLPYDYWGQGTQVTVSS	high polyreactivity
QVQLVESGGGLVQAGGSLRLSCAASGSTFKVYAMGWYRQAPGKERELVAVISGGGRTNYADSVKGRFTISRDNAKNTVYLQMNSLNPEDTAVYYSAALGPYGSARRKYGYWGQGTQVTVSS	high polyreactivity
QVQLVESGGGLVQAGGSLRLSCAASGSTFKWYAMGWYRQAPGKERELVAAISQSGSRTYYADSVKGRFTISRDNAKNTVYLQMNSLKPEDTAVYYCNARRYIYNYDYWGQGTQVTVSS	high polyreactivity
QVQLVESGGGLVQAGGSLRLSCAASGSTFKYYAMGWSRQAPGKERELVAAISYRGGRTYYADSVKGRFTISRDNAKNTVYLQMNSLKPEDTAVYYCPAVKPYYIQYQGSAGYDYWGQGTQVTVSS	high polyreactivity
QVQLVESGGGLVQAGGSLRLSCAASGSTFKYYAMGWYRQAPGKERELVAAITWRGGSTYYADSVKGRFTISRDNAKNTVYLQMNSLKPEDTAVYYCNRAYLYAYRSWWETYLRGDYWGQGTQVTVSS	high polyreactivity
QVQLVESGGGLVQAGGSLRLSCAASGSTFKYYAMGWYRQAPGKERELVARISSGGRTYYADSVKGRFTISRDNAKNTVYLQMNSLKPEDTAVYYCNAQGYTTYRGDYWGQGTQVTVSS	high polyreactivity
QVQLVESGGGLVQAGGSLRLSCAASGSTFKYYVMGWYRQAPGKEREFVAAITLRGGRTYYADSVKGRFTISRDNAKNTVYLQMNSLKPEDTAVYYCNAAYYLGWAHGTGRVEYDYWGQGTQVTVSS	high polyreactivity
QVQLVESGGGLVQAGGSLRLSCAASGSTFLANAMGWYRQAPGKERELVATISSGGSTNYADSVKGRFTISRDNAKNTVYLQMNSLKPEDTAVYYCAAEYWYAWQEYGYWGQGTQVTVSS	low polyreactivity
QVQLVESGGGLVQAGGSLRLSCAASGSTFLANAMGWYRQAPGKEWELVATISSGGSTNYADSVKGRFTISRDNAKNTVYLQMNSLKPEDTAVYYCAAEYWYAWQEYGYWGQGTQVTVSS	low polyreactivity
QVQLVESGGGLVQAGGSLRLSCAASGSTFLDNAMGWFRQAPGKERELVAAITSGDSTKYADSVKGRFTISRDNEKNTVYLQMNSLKPEDTAVYYCAADVGRNKMDYWGQGTQVTVSS	low polyreactivity
QVQLVESGGGLVQAGGSLRLSCAASGSTFLENAMGWYRQAPGKEREFVAAISKSGGSTSYADSVKGRFTISRDNAKNTVYLQMNSLKPEDTAVYYCATRRSRAYDYWGQGTQVTVSS	high polyreactivity
QVQLVESGGGLVQAGGSLRLSCAASGSTFLGYDMGWYRHAPGKERELVATISKSGGSTHYADSVKGRFTISRDNAKNTVYLQMNSLKPEDTAVYYCAADYYQRYYKKSGEYDYWGQGTQVTVSS	low polyreactivity
QVQLVESGGGLVQAGGSLRLSCAASGSTFLGYVMGWYRQAPGKEREFVAAITWSVGSTYYADSVKGRFTISRDNAKNTVYLQMNSLKPEDTAVYYCAVRWVYANIYPDMEYWGQGTKVTVSS	low polyreactivity
QVQLVESGGGLVQAGGSLRLSCAASGSTFLHYAMGWYRQAPGKERELVAAISRRGGRTYYADSVKGRFTISRDNAKNTVYLQMNSLKPEDTAVYYCAVDGIRDGYWIFYYWGQGTQVTVSS	low polyreactivity
QVQLVESGGGLVQAGGSLRLSCAASGSTFLLYAMGWYRPAPGKERELVATISWGGDGTYYADSVKGRFTISRDNAKNTVYLHLNSLKPEDSAVYYCAAYSYFGYYWDGQLPYRLPYDYWGQGTQVTLSS	low polyreactivity
QVQLVESGGGLVQAGGSLRLSCAASGSTFLNYALGWYRQAPGKERELVASISYSAGSTYYADSVKGRFTISRDNAKNTVYLQMNSLKPEDTAVYYCAARLARAGYWRRNYYYWGQGTQVTVSS	high polyreactivity
QVQLVESGGGLVQAGGSLRLSCAASGSTFLNYAMGWYRQAPGKERELVAAISGSTTRTYYADSVKGRFTISRDNAKNTVYLQMNSLKPEDTAVYYCARYSLYTGYRRYPLDYDYWGQGTQVTVSS	high polyreactivity

— the nanobody polyreactivity screen of Harvey et al. (2022)
